B2: His-Spc72^1-599 (C. albicans), co-expressed in insect cells (domain or fragment, UniProt Q5AGV5 1-599, looked up)
chain: MSNLSINESNDNSNVSILSNKSGAQSSTNSSPNLIVFKQPEDLSIQLQQQQQGTQEDTPEEEEEEEEEMEQITQLEVQQENQPDTLSSSPFISRPNSPLDDIIRPQGTSSPSLTIRDSYSSQVDINISNLHKSLNEMRLSTDPVDNNNNNNKVNKNNPTNSDISNDDIITIDNLTPSRIQPKNISPWRQFRPTLRGSPESTPRSLFQNKPNLKFNNGLSPTNGSRDMVTNNIATTTKSREEELNKRIVNYKIQLKLMKNFLQELIDRNNLDPHEFHTLLRRNNNNIMNNENNPLSTSLSQTSTLEIQHQNLQIELDEALELNKQLYNKIETANKEISDKDLQISNYESRINLINYSVDELIYILINEYDKNNYSHGGSNTTSPGKETLQQSISAQLEVKLNVLKLELMTRLDQSHQYNNKPHDLFTPPYTSSEYGVSTNNVANKNDLEGYIHIIEDLIKTVDELELTCENYKANKNELQNQLVEQINESIRIKNNFQIMSNKFNQLRQSLSEKENDKNLDEFSKNNHQQQQQQQIQQLEQKLIEYEKCITILQDELDQYKQPSDTTNTTNNNNNNNNNNNRSSYSSYNNHRNSSLNELN
notes: Only the CM1 motif is resolved in the cryo-EM map, as a parallel dimeric coiled coil; source: Sf21 insect cells, MultiBac co-expression with γ-TuSC components and FLAG-Stu2 or His-GFP-Mzt1

Series [1] concerns the molecule itself. In words: SEC-MALS + other: mass photometry; FLAG-Stu2 (10 µM) and His-Spc72^291-599 (60 µM) alone or mixed 1:1 (vol), Superdex 200 Increase 5/150, 50 mM Tris-HCl pH 7.5, 150 mM NaCl, room temperature; mass photometry below 40 nM. (In general: SEC sorts molecules by how far they enter the pores of the column.)
Series [2] concerns the target B2. Briefly: SEC; FLAG-purified γ-TuSC/His-Spc72^1-599/FLAG-Stu2 on Superose 6 Increase 10/300 in HB100 buffer (40 mM K-HEPES pH 7.4, 100 mM KCl); fractions by SDS-PAGE, Western blot and gel densitometry; ring-like oligomers also seen by negative stain EM. The note with it: both partners purified.
The target of series [3] is T1, γ-tubulin small complex (γ-TuSC) from C. albicans: His-Spc97, His-Spc98, γ-tubulin (Tub4) (C. albicans, UniProt Q59PZ2 1-871; A0A1D8PS42 1-785; O93807 1-502).
T1 construct: Spc97 (homologue of human GCP2), C. albicans; Spc98 (homologue of human GCP3), C. albicans; γ-tubulin (Tub4), C. albicans; For MST the purified γ-TuSC was labelled with an amine-reactive dye (GREEN-NHS kit); also called γ-TuSC unit; γ-TuRC (as ring of seven γ-TuSCs); source: Sf21 insect cells (baculovirus); copies: 1 + 1 + 2
Described as above. The note with it: both partners purified.

Series [4] concerns the molecule itself. In words: cryo-EM structure; γ-TuSC/Spc72^1-599/FLAG-Stu2 complex purified via FLAG-Stu2; single particle analysis, γ-TuSC unit within oligomers at 3.6 Å, 14-spoked ring at 8.2 Å.

Experimental findings from paper PMC11701102, “Structural insights into the interplay between microtubule polymerases, γ-tubulin complexes and their receptors” (Nature Communications, 2025) are described below.

Some results are limits rather than exact numbers.

B1: FLAG-Stu2 (C. albicans, full length) (natural protein, UniProt A0A1D8PTZ8 1-924, looked up)
chain: MSTEEEDYSNLSLEERFVHKVWKVRLQAYEELATNIENSRNESDPIFTSLSLDNLKKMILDSNVVAQETGYNTFNKFLIFGGNAANVSKLKNLGIIGSICEKGLLSSRKNTKEWSVESILLMIEISNDPNSIVEDILPYLTNRLPKLVTGCVSCLASIIENFGCKIISPKPIVPCLSKLFAHADKNVRNETTKLTIELYRWMGDALINALFSDLKPVQQKDLTAAFEKEKGTSPQQKRYTKKQREEIERREQEAAAAAAAAAATTAGNGGGNGDDVDDVEMSDVNGVTDDNEYDPLEFVDPVEVLNKFPSDFDSRISSSKWKDRKEVLEEIIPILEKSPKLITTDDYLPVLRIWAKCMKDANIQVVQLAANCIEFVIKGLGNEFSKYQSVVLTPVVERLKEKKPSVATALDNVLDALFNLSGFGNGVLDEAINGMKLKTPQNKIASANFVKRCLSTTKIPPKTSEIDAIMEVGIKLLSESQEPIRQAATEMIGTLMKITGPRELKPFLEKVDENRKNKINDYYEETAQVKTTMANASKSSSVASGSRNVSTAGGSFSSSTMKPPSKSSQDRKTSSGASSIIPAKRTASSPAKRDEVKNGRGMTARSLAKPNIPSLRPPTNVTQDSSGDGSSFSQQQQQQQVPSTSTGGGSGGAQSMISSVTNEEVNLLKQQIIKLQEEVQNYKNQQESHLKTIKLLEESNNNYREEIESVKRELSNEKRNATITTNHKDTHINNLKSELEKANYRIKDLEQEREINRLQQSNLAFERSNISSSNSRNSFYKPSPNKFAPSDISTGVKRLSIGGEENNHFGGGGGASPNFHNNTIHSTNTTTSTTATASGAGIGTGVGTGTGTGTGTGMGISRPTNSFRSSVNYGSTSSLTSSSRRESMDIDNGADWKRAAEVTLQLKARIERMKARTRSPLNIE
notes: Stu2, C. albicans, full-length Met1 to Glu924; FLAG tag followed by an HRV 3C cleavage site at the 5' end; also called wild-type FLAG-Stu2; source: Sf21 insect cells; not shown: FLAG, N-terminal, kept
Broadly, the stoichiometry N is the number of molecules, sites or subunits per partner or assembly. On to B1, for which the “stoichiometry N” value is 2 in series [1] and < 2 Stu2 dimers per Spc72 dimer in series [2].

Turning to B2, the “stoichiometry N” value in series [3] was ~2 Spc72^1-599 per γ-TuSC (Spc97:Spc98:γ-tubulin:Spc72^1-599); in series [4], 2.
